System: T1, CC(=O)N[C@H]1[C@H](Oc2ccc([N+](=O)[O-])cc2)O[C@H](CO)[C@@H](O[C@@H]2O[C@H](CO)[C@@H](O)[C@H](O)[C@H]2NC(C)=O)[C@@H]1O
T1 construct: full length 658 residues with predicted signal peptide (residue 23) kept, C-terminal His6 (pET-28a(+)), E. coli BL21(DE3); peptides AATPTPVSAT, EDYKVLKNA, LTFINYAFGNVYQK
Assay: p-nitrophenol release, Lineweaver-Burk plot
Assay type: biochemical, Chitinolyticbacter meiyuanensis
Conditions: 50 mM sodium citrate pH 5.2, 50 °C, 5 min, apparent, text b64 prints the same number as mg/mL, table unit agrees with printed kcat/Km 73.5 mL/s/μmol
From the text: p-nitrophenol release, Lineweaver-Burk plot on CmChi1

Sequence of CmChi1 (Chitinolyticbacter meiyuanensis) (chain, as listed by the source): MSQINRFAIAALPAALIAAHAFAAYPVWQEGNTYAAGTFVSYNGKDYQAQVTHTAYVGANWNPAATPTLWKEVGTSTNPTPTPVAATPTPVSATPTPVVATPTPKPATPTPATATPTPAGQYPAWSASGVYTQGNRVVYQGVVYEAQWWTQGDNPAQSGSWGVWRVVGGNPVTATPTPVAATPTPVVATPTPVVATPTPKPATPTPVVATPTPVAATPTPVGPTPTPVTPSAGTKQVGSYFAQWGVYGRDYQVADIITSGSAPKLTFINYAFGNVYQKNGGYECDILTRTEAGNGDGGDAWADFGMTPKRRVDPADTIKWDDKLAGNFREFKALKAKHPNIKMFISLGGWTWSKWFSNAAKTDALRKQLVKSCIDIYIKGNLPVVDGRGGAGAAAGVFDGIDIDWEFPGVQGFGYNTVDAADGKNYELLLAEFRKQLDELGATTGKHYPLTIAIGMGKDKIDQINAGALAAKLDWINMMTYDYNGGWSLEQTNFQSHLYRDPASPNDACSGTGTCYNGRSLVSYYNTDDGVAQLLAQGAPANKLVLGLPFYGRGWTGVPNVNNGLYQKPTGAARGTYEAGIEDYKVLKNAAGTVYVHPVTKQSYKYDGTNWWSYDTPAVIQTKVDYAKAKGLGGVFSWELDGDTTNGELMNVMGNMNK

In the case of “CmChi1 (Chitinolyticbacter meiyuanensis)”, the Km is reported as 580 ± 40 µM, the Vmax is reported as 108.6 ± 3.3 (μmol/min/L) and the kcat is reported as 42.5 ± 1.4 s⁻¹. The kcat/Km was 73.5 ± 2.6 (mL/s/μmol).
